Test results reported in patent US10272135B2, “Apolipoprotein O and fragments thereof for inducing apoptosis in a cancerous cell” (INSERM (INSTITUT NATIONAL DE LA SANTÉ ET DE LA RECHERCHE …, priority 2014, dated 2019).

Assays:
[1] = system: Bax; assay: Bax mRNA levels in cardiac myoblasts; type: cell-based; conditions: ApoO cells vs control (FIG. 9f)
Excerpt: (§1) After ethical committee approval, all patients in this study gave written consent for sample collection and molecular analysis prior to inclusion. Patients were carefully selected by physicians from the Department of Cardiology, Toulouse University Hospital, prior to coronary by-pass surgery. Bioinformatics. Microarray expression data from human heart samples were downloaded from the GEO repository (GSE1145). This series consisted of 107 myocardial samples collected from patients undergoing cardiac transplantation whose failure arises from different etiologies (e.g. idiopathic dilated cardiomyopathy, ischemic cardiomyopathy, valvular cardiomyopathy, and hypertrophic cardiomyopathy) and from “normal” organ donors whose hearts cannot be used for transplants. Arrays were intensity normalized and hierarchical clustering (average group linkage, Pearson correlation, threshold r=0.8) was applied to identify groups of co-expressed genes. […] All ApoO sequences within the expression vectors were verified by DNA double strand sequencing using ABI PRISM®BigDye™ Terminator version 3.1 Ready reaction cycle sequencing kit (Life Technologies SAS, Villebon sur Yvette) and loaded on an ABI 3130XL DNA sequencing instrument (Life Technologies SAS, Villebon sur Yvette). […]

[2] = system: mouse heart; assay: Cardiac specific human ApoO transgenic mice (ApoO-Tg); type: in vivo
Excerpt: After ethical committee approval, all patients in this study gave written consent for sample collection and molecular analysis prior to inclusion. Patients were carefully selected by physicians from the Department of Cardiology, Toulouse University Hospital, prior to coronary by-pass surgery. Bioinformatics. Microarray expression data from human heart samples were downloaded from the GEO repository (GSE1145). This series consisted of 107 myocardial samples collected from patients undergoing cardiac transplantation whose failure arises from different etiologies (e.g. idiopathic dilated cardiomyopathy, ischemic cardiomyopathy, valvular cardiomyopathy, and hypertrophic cardiomyopathy) and from “normal” organ donors whose hearts cannot be used for transplants. Arrays were intensity normalized and hierarchical clustering (average group linkage, Pearson correlation, threshold r=0.8) was applied to identify groups of co-expressed genes. ApoO expression levels were plotted for the 107 human hearts tested and used to define relevant molecular pathways using both Toppgene and Ingenuity Pathway Analysis (Ingenuity systems, Redwood City, Calif., USA). ApoO subcellular localization was predicted using Mitopred, mitoprot and YLoc. Animals: All animal Studies followed the INSERM Institute Animal Facility guidelines and were approved by the animal care committees of the INSERM I2MC UMR 1048. All animal procedures were performed according to the guidelines of the French Ministry of Agriculture. Animals were housed at the Toulouse I2MC animal facility in a room lit 12 h per day (6 AM-6 PM) at an ambient temperature of 22+/−1° C. Construction of ApoO Expression Vectors To overexpress human ApoO (pTT-ApoO), the ApoO coding sequence was amplified using primers hApoO5BamPTT (SEQ ID NO: 2) and hApoO3BamPTT (SEQ ID NO: 3) and cloned into the BamH1 site of pTT expression vector. pSNAP-ApoO was generated by PCR amplification of pTT-ApoO using primers SnapApoEcorV-F (SEQ ID NO: 4) and SnapApoEcorV-R (SEQ ID NO: 5) and cloned into the EcoRV site of pSNAP-Tag® (Ozyme, Saint-Quentin-en-Yvelines, France). pGEX2T-ApoO was constructed by PCR amplification of pTT-ApoO using hApoOpGEX1FBam (SEQ ID NO: 6) and hApoOpGEX1RSma (SEQ ID NO: 7) and cloned into the Bam HI/Sma I site of pGEX2T (Promega, Charbonnières-les-Bains). All primers used in this work were synthesized by Eurogentec France (Angers). All restriction enzymes used were from New England Biolabs (Ozyme, Saint-Quentin-en-Yvelines). All ApoO sequences within the expression vectors were verified by DNA double strand sequencing using ABI PRISM®BigDye™ Terminator version 3.1 Ready reaction cycle sequencing kit (Life Technologies SAS, Villebon sur Yvette) and loaded on an ABI 3130XL DNA sequencing instrument (Life Technologies SAS, Villebon sur Yvette). Cell Culture and Tranfection of H9C2 Cardic Myoblasts H9c2 were obtained from the European Collection of Cell Cultures (Salisbury, England). H9c2 cells were cultured in Dulbecco's modified Eagle medium (Life Technologies SAS, Villebon sur Yvette) adjusted to contain 1.5 g/liter sodium bicarbonate and supplemented with antibiotic-antimycotic solution (Life Technologies SAS, Villebon sur Yvette) and 10% fetal bovine serum (FBS, AbCys s.a., Paris). Cells were plated on 10-cm diameter tissue culture dish and grown in a 5% CO2 incubator at 37° C. with saturating humidity with medium changes every 2 days. H9c2 cardiomyoblasts were stably transfected by electroporation and pools of tranfectants were selected as previously published. Knock-Down of ApoO Overexpression shRNA used to knock-down ApoO gene expression and controls were from MISSION shRNA set; Sh2=TRCN 72707; Sh4=TRCN 72704; Sh5=TRCN 72705 (Sigma Aldrich, Saint-Quentin Fallavier) and used as recommended by generating pools of stable transfectants. Empty vector (no shRNA insert) control was also transfected and had no significant effect. […]

[3] = system: cardiac myoblasts; assay: Transmission electron microscopy of cardiac myoblasts; type: cell-based; conditions: ApoO cells
Excerpt: as §1

B1: ApoO: 198-amino acid apolipoprotein, SEQ ID NO: 1; tested by overexpression from expression vectors or transgene (protein, listed as Homo sapiens)
chain: MFKVIQRSVGPASLSLLTFKVYAAPKKDSPPKNSVKVDELSLYSVPEGQSKYVEEARSQLEESISQLRHYCEPYTTWCQETYSQTKPKMQSLVQWGLDSYDYLQNAPPGFFPRLGVIGFAGLIGLLLARGSKIKKLVYPPGFMGLAASLYYPQQAIVFAQVSGERLYDWGLRGYIVIEDLWKENFQKPGNVKNSPGTK
- expression of Bax [1]: increase
- cytochrome C oxidase activity in heart ([2]; ApoO-Tg hearts): increase
- diglyceride levels in heart ([2]; ApoO-Tg vs WT (FIG. 8a)): increased
- intracellular triglycerides in heart ([2]; ApoO-Tg vs WT (FIG. 8b)): did not significantly modify
- Bax expression in heart ([2]; ApoO-Tg vs WT (FIG. 9b)): enhanced
- Caspase-3 activity in heart ([2]; ApoO-Tg vs WT (FIG. 9c)): enhanced
- ACSL activity in heart ([2]; hearts from ApoO-Tg mice): significant increase
- fatty acid transporter expression in heart ([2]; hearts from ApoO-Tg mice): significant increase
- calcium retention capacity ([2]; mitochondria isolated from ApoO-Tg mice hearts): significantly diminished
- plasma membrane morphology (TEM) [3]: formation of blebs
